Values of other authors in PMC5337525.

Biological target: calmodulin (UniProt P0DP23)

Question: For β-arrestin 1 (from UniProt P17870), which Kd is on record?
Answer: 7 µM
